One experiment concerns the target T1, TRIMStop fused to lexA (owl monkey (Aotus trivirgatus)).
T1 construct: Yeast two-hybrid bait; also called LexA-TRIMStop; not shown: LexA, fusion partner of the yeast two-hybrid system
T1 chain: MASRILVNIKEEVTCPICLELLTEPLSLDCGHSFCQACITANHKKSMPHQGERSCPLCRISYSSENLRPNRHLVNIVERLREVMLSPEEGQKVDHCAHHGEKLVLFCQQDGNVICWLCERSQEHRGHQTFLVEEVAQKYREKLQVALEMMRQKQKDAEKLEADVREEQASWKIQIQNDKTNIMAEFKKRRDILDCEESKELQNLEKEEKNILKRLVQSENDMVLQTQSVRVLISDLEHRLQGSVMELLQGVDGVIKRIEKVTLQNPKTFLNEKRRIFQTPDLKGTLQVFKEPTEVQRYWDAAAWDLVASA
Kind of experiment: yeast two-hybrid, β-galactosidase reporter.

Another experiment concerns the target T2, TRIMCyp fused to lexA (owl monkey (Aotus trivirgatus)).
T2 construct: Yeast two-hybrid bait; also called LexA-TRIMCyp; not shown: LexA, fusion partner of the yeast two-hybrid system
As to the kind of experiment: yeast two-hybrid, β-galactosidase reporter.

Experiment [1] deals with T3, GST-TRIM5αhu (glutathione S-transferase fusion with full-length human TRIM5α) (human, UniProt Q9C035 2-493).
T3 construct: mature; Produced in 293T cells; also called GST-T5α; not shown: glutathione S-transferase (GST)
T3 sequence (Q9C035 2-493): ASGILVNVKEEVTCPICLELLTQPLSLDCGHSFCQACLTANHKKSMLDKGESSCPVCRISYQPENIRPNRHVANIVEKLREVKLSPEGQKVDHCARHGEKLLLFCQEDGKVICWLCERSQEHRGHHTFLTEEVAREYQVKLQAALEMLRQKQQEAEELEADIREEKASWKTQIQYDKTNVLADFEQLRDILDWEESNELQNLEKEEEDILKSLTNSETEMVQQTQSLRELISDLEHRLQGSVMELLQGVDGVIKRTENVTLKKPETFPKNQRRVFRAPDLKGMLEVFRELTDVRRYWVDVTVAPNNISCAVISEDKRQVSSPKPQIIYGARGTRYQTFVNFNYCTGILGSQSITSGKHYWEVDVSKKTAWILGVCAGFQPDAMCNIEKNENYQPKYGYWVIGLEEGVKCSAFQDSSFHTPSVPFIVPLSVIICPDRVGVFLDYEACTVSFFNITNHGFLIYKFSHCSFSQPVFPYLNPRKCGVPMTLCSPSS
Kind of experiment: immunofluorescence colocalization in cotransfected TE671 cells.

Experimental for TRIMCyp fused to lexA: (§1) (A) Yeast two-hybrid system. […] Pairs of fused LexA and B42 expression plasmids were transformed into Saccharomyces cerevisiae strain EGY48. For each transformant, β-galactosidase activity for three colonies is reported in Miller units with the standard deviation. (B) Binding in mammalian cells.
(§2) Fusions of these proteins with LexA and/or B42 were constructed, and the interactions between fusion proteins were analyzed using a previously described system (37) in which reporter gene β-galactosidase activity was assessed with a quantitative assay (43).
Experimental for TRIMStop fused to lexA: as §1, §2

B1: TRIMStop expressed in fusion with the B42 activation domain (other, not shown: large carriers)
chain: T1 chain
notes: also called B42-TRIMStop
Turning to B1, the binding result with TRIMStop fused to lexA and with TRIMCyp fused to lexA was “binds” each time.

B2: 3× FLAG N-terminal-tagged TRIMStop (other)
chain: T1 chain
notes: also called FLAG-TRIMStop; not shown: 3x FLAG tag of p3xFLAG.CMV (SIGMA)
Regarding B2, the binding result in experiment [1] is on record as “binds”.

The values above are taken from patent US20080045454A1 (TRUSTEES OF COLUMBIA UNIVERSITY IN THE CITY OF NEW YORK, published 2008).
